Measurements as given in paper PMC8024396, “Biochemical and structural characterization of the BioZ enzyme engaged in bacterial biotin synthesis pathway” (Nature Communications, 2021).

B1: glutaryl-ACP, P0A6A8 1-78 (natural protein)
chain: MSTIEERVKKIIGEQLGVKQEEVTNNASFVEDLGADSLDTVELVMALEEEFDTEIPDEEAEKITTVQAAIDYINGHQA
modifications: here or on the partner: glutaryl thioester on the phosphopantetheine (Ppan) of Serine 36
B2: E. coli holo-ACP, P0A6A8 1-78 (natural protein)
chain: B1 chain
modifications: here or on the partner: phosphopantetheine (Ppan) on Serine 36 (holo-ACP)
B3: malonyl-ACP, P0A6A8 1-78 (natural protein)
chain: B1 chain
modifications: here or on the partner: malonyl thioester on the phosphopantetheine (Ppan) of Serine 36
B4: Agrobacterium tumefaciens BioZ (enzyme, UniProt A0AA44F6N6 1-328, looked up)
chain: MQTRSSRMAGFGHAVPARCVRNAEIETRLGLEAGWIERRTGIRTRYWAQEGETLSGLAEKAGRMALENARIGAEDIALTLLATSTPDHLLPPSAPLLAHRLGLTQSGAIDLAGACSGFLYALTLADGFVRTHGRAVLVVAANILSRRINPAERATAVLFADAAGAVVLVPCRDAQRGLLSADLVSDGSGYDLIQIAAGGSSQPFSNDTEAEDTLMTMRDGREVFSRAVATMTQTSQRALQRAEMTATDIQRFLPHQANARMFDAVCGNIGIDRQKTVRTVETFGNSSAATIPLSLSVSNAERPITEGETLLLTAAGAGMTGGAVVYRG
notes: BioZ (FabH2), atypical beta-ketoacyl-ACP synthase III of Agrobacterium tumefaciens; bioZ gene cloned into pET28a; apparent mass ~36 kDa; 654 protein residues in the two protomers of PDB 6KUE; also called AtBioZ; FabH2; source: E. coli BL21 with pET28::atbioZ, purified (Ni-NTA, TEV cleavage, Superdex 200 Increase SEC); not shown: His6, N-terminal, cleaved

Tests used:
[1] = biological target: T1, AtBioZ (FabH2, beta-ketoacyl-ACP synthase III) (Agrobacterium fabrum, UniProt Q7CTU0, C115A); assay: ITC (MicroCal PEAQ-ITC, […] °C), N = […]; assay type: binding
T1 construct: gene bioZ; purified BioZ(C115A)

[2] = biological target: BioZ(C115A) mutant enzyme of Agrobacterium tumefaciens (Agrobacterium tumefaciens), A0AA44; assay: ITC; MicroCal PEAQ-ITC, 25 °C; 50 μM BioZ(C115A) in the cell, 750 μM substrate in the syringe; 20 mM Tris pH 8.0, 150 mM NaCl; one binding-site model; three independent measurements; details: remark: other sources report otherwise
[3] = biological target: the molecule itself; assay: SEC; gel filtration of purified AtBioZ on Superdex 200 Increase 10/300; GF buffer (25 mM Tris-HCl pH 8.0, 100 mM NaCl, 2 mM DTT)

Molecule	Kd [1]	Kd [2]	stoichiometry N [2]	stoichiometry N [3]
CC(C)(COP(=O)(O)OP(=O)(O)OC[C@H]1O[C@@H](n2cnc3c(N)ncnc32)[C@H](O)[C@@H]1OP(=O)(O)O)[C@@H](O)C(=O)NCCC(=O)NCCSC(=O)CCCC(=O)O [glutaryl-CoA]	2.64 ± 0.23 µM			
B1		6.17 µM	0.978	
B2		330 µM	1	
B3		24.1 µM	0.996	
B4				2
